Results as given in publication PMC6796912.

How the values were obtained:
[1] = molecular target: Saccharomyces cerevisiae Tel1 (TEL1-FLAG), endogenously purified (S. cerevisiae) (UniProt P38110); assay: cryo-EM structure; Tel1-FLAG purified from S. cerevisiae, 20–50 μg/mL in 20 mM HEPES pH 8.0, 40 mM KOAc, 5 mM MgCl2, 0.1% trehalose, 2 mM DTT, 0.01% NP-40; symmetric dimer (C2, 4.1 Å) and asymmetric dimer (4.3 Å) classes
[2] = molecular target: GST-Xrs2 (full-length S. cerevisiae Xrs2) (S. cerevisiae) (UniProt P33301); assay: pull-down; glutathione sepharose saturated with full-length GST-Xrs2 added to lysates of yeast expressing wild-type or mutant Tel1; 2 h at 4 °C, washed 3 times with lysis buffer; immunoblot with anti-PAP antibody
GST-Xrs2 (full-length S. cerevisiae Xrs2) (S. cerevisiae), sequence (P33301 whole entry): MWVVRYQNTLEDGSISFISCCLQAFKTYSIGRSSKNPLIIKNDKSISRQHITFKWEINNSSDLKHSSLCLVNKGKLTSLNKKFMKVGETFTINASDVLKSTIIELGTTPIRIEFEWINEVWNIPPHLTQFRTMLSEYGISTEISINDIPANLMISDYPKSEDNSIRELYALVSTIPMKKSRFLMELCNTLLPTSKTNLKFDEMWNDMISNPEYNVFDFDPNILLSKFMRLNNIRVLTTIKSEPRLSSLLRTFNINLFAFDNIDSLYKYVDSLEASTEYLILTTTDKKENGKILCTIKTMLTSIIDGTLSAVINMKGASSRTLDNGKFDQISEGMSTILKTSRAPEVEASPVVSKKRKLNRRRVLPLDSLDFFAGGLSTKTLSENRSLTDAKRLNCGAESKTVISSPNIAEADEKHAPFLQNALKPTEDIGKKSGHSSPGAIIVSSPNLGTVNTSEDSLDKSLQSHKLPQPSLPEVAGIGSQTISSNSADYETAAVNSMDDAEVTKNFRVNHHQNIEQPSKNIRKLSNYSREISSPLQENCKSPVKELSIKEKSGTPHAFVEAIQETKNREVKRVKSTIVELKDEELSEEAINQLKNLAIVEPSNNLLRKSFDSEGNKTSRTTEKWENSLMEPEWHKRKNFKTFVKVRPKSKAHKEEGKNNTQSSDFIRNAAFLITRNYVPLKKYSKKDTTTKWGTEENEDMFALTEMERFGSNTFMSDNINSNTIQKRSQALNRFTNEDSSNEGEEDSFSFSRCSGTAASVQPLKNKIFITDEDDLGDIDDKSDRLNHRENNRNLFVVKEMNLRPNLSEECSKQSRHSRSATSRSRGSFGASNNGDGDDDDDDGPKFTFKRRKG

## Saccharomyces cerevisiae Tel1 (TEL1-FLAG), endogenously purified, P38110 1-2787
[1]
  stoichiometry N: 2

## Tel1 K2751E (TAP-tagged), P38110 1-2787
[2]
  decrease of Xrs2 binding against wild-type Tel1: 100%
